Test results taken from the DeepSol protein solubility set.

Assay: soluble on expression in E. coli; label from the status in PepcDB or PDB records

With “PSTAAWFNAREQAKLVDLYDSKIENATPLSAEQLLELAHRYNDRLTVGAALDPWANVPRGAGKEDGDGMAYKDQLRVDRTDVMARIRIPSIKVDLPIYHGTSDNTLKKGAGHLEGTSLPVGGPRTHSVITAHRGLAEATMFTNLNKVGVGDRFTIEVMGEVLTYEVRETRVVSPEDTRFLQTQDDRDLVTLVTCTPLGINTHRILVTAERITPTPQSDIDAARQASQIGFP” the “soluble on expression in E. coli” value was “not soluble”.

With “MSSKNPVDEQPCCGSHEGSHQDPAPETLVVEKEVNNGEKKIRIAVVGCSHGEMDAIYETMTLIEQKNGYKFDLLICCGDYQAVRNYGDLPHMSIPPKYRSLQTFYKYYSGEQKAPVLTLFIGGNHEASGYLCELPNGGWVAPNIYYMGFANCIRFANLRIAGLSGIFSQGDFQFSHYERPSFSERDVKSAYHVRNVDMFRLRQLKSDNENKISNPIDIMLSHDWPGGIPDFGDKEWLFRKKDLFEADHNSGKLGNPSGMKLIYDCRPRYYLAAHLHIAFAALVPHKGSGSGRPQPTRFLSLDKPIPGRKFMQALELNVADDAKLELSYDPQWLAILRNTDLLTTGTKEQLILPDMASNRPCVYERKDFRPTAEELKEIEKLGDLTIRTDSFQQTAPPLKEITESSKNVPPSAYYRNPQSAEFCQWLGIRDLNQMLVEKTSEHVGTPYYMMTQDDANAKPNQDDVDFGDEDFVIDRGHTSDEPEAKKSRLDEDKFEAVPSE” the “soluble on expression in E. coli” value was “soluble”.

With “MSEPIPPFRYAPIVCSEQSTIVAEFVPEASGVREAGYQSEAELEAAFITQLQGQAYEYLSITSEAALLANLRRQLEKLNKVTLSDAEWEGFFSTCIAGAHDGIVQKTARIQEDHVQVLKRDDGTIKNMCLLDKGNIHNNILQVMNQYAVEGARGNRYDVTVLVNGLPMVHVELKRRGVDIREAFNQINRYQRDSFWAGSGLFDYVQLFVISNGTLTKYYSNTVRAGHVEEQSNKRSKSKTSNSFSFAIWWADAKNQPITELTSFTKTFFAKHSLLNVLTKYCVFNANRKLLVMRPYQIVAAERILQRIVTATHQQQLGTVAAGGYIWHTTGSGKTLTSFKVAQLACGLGVIDKVLFVVDRKDLDYQTMREYESFEKGAANSNTSTAVLQRQLEDSDVRIIITTIQKLSRFVAKHKQHPVYGAHVAVIFDECHRSQFGDMHTEITRAFQRYHLFGFTGTPIFAENAGSTQNPMRRTTQQTFGDTLHTYTIVDAINDKTVLPFRIDYINTIKSQPNINDKQVAAIDTERALLAPERIRQIVSYIREHFDQKTKRASIYRHEGQRLQGFNALLATASIDAAKRYYAELMAQQKDLPEAQRLKVGLIYSVAANEGDGDELLAEEEFETERLDQDARNFLEAAIQDYNALFGTSFDTSADKFQNYYKDVSERLKKRKLDILIVVNMFLTGFDATTLNTLWVDKRLKAHGLIQAYSRTNRILNSVKSYGNIVSFRNLEQETNEALALFGNKDAKGIVLLRPYAEYYKEYEERVGELVAAFPLGKVIVGEAAQKAFITLFGSILRLKNILTAFDDFAGQEVLTEREFQDYQSLYLNLYAEFRSASAAEKESINDDVVFEIELIKQVEINVDFILLLVEQYVKKKGTGEDKDIRATIERAIHSSPSLRNKKELIEQFVDAVSMKATVDAQWQAFVAVKQSQELEGIIAEENLNAEATREFIANAFRDGSIPATGTAITKILPPVSRFSKNNGHAAKKQTVLDKLATFFERYFGLV” the “soluble on expression in E. coli” value was “soluble”.

With “MALHLHRAERTDLLADGLGALLADPQPDPFAQELVLVAARGVERWLSQRLSLVLGCGPGRADGVCAGIAFRNPQSLIAEITGTLDDDPWSPEALAWPLLAVIDASLDEPWCRTLASHLGHFATTDAEAELRRGRRYSVARRLAGLFASYARQRPGLLAAWLDGDLGELPGDLAWQPPLWRALVTTVGADPPHVRHDKTIARLRDGPADLPARLSLFGHTRLACTDVQLLDALAVHHDLHLWLPHPSDELWRALAGFQGADGLLPRRQDTSRRAAQHPLLETLGRDVRELQRALPAARATDEFLGATTKPDTLLGWLQADIAGNAPRPAGRSLSDADRSVQVHACHGPARQIDVLREVLLGLLEDDPTLQPRDIVVMCPDIDTYAPLIVAGFGLGEVAGDCHPAHRLRVRLADRALTQTNPLLSVAAELLTIAETRATASQLLNLAQAAPVRAKFGFADDDLDTITTWVRESNIRWGFDPTHRRRYGLDTVVHNTWRFGLDRILTGVAMSEDSQAWLDTALPLDDVGSNRVELAGRLAEFVERLHHVVGGLSGARPLVAWLDALATGIDLLTACNDGWQRAQVQREFADVLARAGSRAAPLLRLPDVRALLDAQLAGRPTRANFRTGTLTVCTMVPMRSVPHRVVCLVGLDDGVFPRLSHPDGDDVLAREPMTGERDIRSEDRQLLLDAIGAATQTLVITYTGADERTGQPRPPAVPLAELLDALDQTTSAPVRERILVTHPLQPFDRKNVTPGALLGAKPFTFDPAALAAAQAAAGKRCPPTAFISGRLPAPPAADVTLADLLDFFKDPVKGFFRALDYTLPWDVDTVEDSIPVQVDALAEWTVGERMLRDMLRGLHPDDAAHSEWRRGTLPPGRLGVRRAKEIRNRARDLAAAALAHRDGHGQAHDVDVDLGDGRRLSGTVTPVFGGRTVSVTYSKLAPKHVLPAWIGLVTLAAQEPGREWSALCIGRSKTRNHIARRLFVPPPDPVAVLRELVLLYDAGRREPLPLPLKTSCAWAQARRDGQDPYPPARECWQTNRFRPGDDDAPAHVRAWGPRAPFEVLLGKPRAGEEVAGEETRLGALAARLWLPLLAAEGSV” the “soluble on expression in E. coli” value was “soluble”.

With “MHSPTPFALAIFLGILYHIPTFSNQRSIMNNLELEQLINQKLSSDKINDYAPNGLQVEGKTEIKKIITGVTASQALINYAISQNADAILVHHGYFWKSETPCIRGMKGKRIKALLVNDINLYGYHLPLDVHPELGNNAQLAKLLDIENLQPLEKGSVSIPVWGELKEPMTGKDFAEKIEKVLNRKPLICIENGPHLIRKIGICTGGGQGYIDLAAEQGCDAFITGEVSEQTIHSAREQGLYFFSAGHHATERYGIKALGEWLAKEYGFDVEFKDIDNPALEHHHHHH” the “soluble on expression in E. coli” value was “soluble”.

For “MIKMIVVLRLGHRPERDKRVTTHVALTARAFGADGIIIASEEDEKVKESVEDVVKRWGGPFFIEFNRNWRKVMKEFTGVKVHLTMYGLHVDDVIEELKEKLKKGEDFMIIVGAEKVPREVYELADYNVAIGNQPHSEVAALAVLLDRLLEGKGLKKEFKGAKIKIVPQARGKKVVEVQGYAEQDKAEGKATPGKNWENSGFTGDNP”, the “soluble on expression in E. coli” value was “soluble”.

For “RMNLKEAAKKAENKSDFVNHVLPHYCNIMFGLIETRSAFLHEKSNFFEGFLTKEGLINEDRFAPMFGIYGMAEAVDILMEKEGIEAKYGHDEIANQLGHAISKQLSEIVDATDVKYGYHGKALLHAQGGISLDIDVTPGVRIPYGTEPDPVSYVQATVGHHQYYTSGISDILTIDETVKSNPEAMFNLAKGALQLGYREFTANVASNDLVRITGYMVKLSDIAKYDAEGSRTNTTFL”, the “soluble on expression in E. coli” value was “not soluble”.

With “MKWKEQAIILGTRQYGETSVILEVMTRQHGRYMGVVKGGRSRRMAVLLQPGNFVEAEWWARLDEHLGLFRLEALDLHAARLILFPEALYALQLIVFHLHLLPERDPHPILYDILHLFMQSFDEPFINAELLVRFEMRFLEELGFGLDLSRCAATGRLEKLCYVSPKSGRAVCEEAGHPWREKLLNLPQFLVQRTVRPVDFSDIKNGFILTGFFLMRHVWEPRNIKQPSVRISLIQLFEQRFRMQASFVDLKTINRM” the “soluble on expression in E. coli” value was “not soluble”.

In the case of “MNKVIKMLVVTLAFLLVLAGCSGNSNKQSSDNKDKETTSIKHAMGTTEIKGKPKRVVTLYQGATDVAVSLGVKPVGAVESWTQKPKFEYIKNDLKDTKIVGQEPAPNLEEISKLKPDLIVASKVRNEKVYDQLSKIAPTVSTDTVFKFKDTTKLMGKALGKEKEAEDLLKKYDDKVAAFQKDAKAKYKDAWPLKASVVNFRADHTRIYAGGYAGEILNDLGFKRNKDLQKQVDNGKDIIQLTSKESIPLMNADHIFVVKSDPNAKDAALVKKTESEWTSSKEWKNLDAVKNNQVSDDLDEITWNLAGGYKSSLKLIDDLYEKLNIEKQSK”, the “soluble on expression in E. coli” value was “not soluble”.

For “CISMSKIAVVINPIAGGGRGKKVWKVLKPGLHALFEQTVYRISNRVNDLEAITDGLLAENPDSLLIIGGDGTLNHVLNGLIEKDKLKNPQTKIAFFNAGCGGDFTRQFPQQKMTEFLDRLSHNQFIKCDIGKITLAN”, the “soluble on expression in E. coli” value was “not soluble”.

In the case of “SSSTLGKLSNQVEETLPLLKKVPANYFHICSAILMGFSLSKSATQVSAIHMDSKVDDHLIRGTEKSRLEPATQLFQNTKKIRLEDTNQENFTRIEGTGTGSLSGKALGSVVYVKESDGLEMTDVE”, the “soluble on expression in E. coli” value was “soluble”.

In the case of “MERPGSGLAGVVVGCDDGRVEKLGPQAGFTAVACISWDNRLRLPLAGSLGLVRVDGVDATSVLAGLVLRLGAAGRPVLLDSLTIGGFNIVSPPGVERLTGSPVLAVYNYRPSLERLESGLRSSRLPLAGVRARVLSLVEEAAEASTPHGPVYLVAWGLEASEARRLVLETQVYGRKPEPVRIAHYTASEASEALRRV”, the “soluble on expression in E. coli” value was “not soluble”.

With “MQIGAKIRQLRIANQMTQEELADRAELSKGFISQIENDLTSPSINTLVDILQCLGTDLKTFFSDSEDKQIVFREKDYFSKTDNELKNTIEWVVPNSQKNAMEPIRMTLQPGGRSLEDHPHEGEEFGYVVKGSIEVHIGNECYRVNEGESFYFESTRKHYIVNVGESDAQVIWVSTPPTF” the “soluble on expression in E. coli” value was “not soluble”.

With “MNEKWIVERAEREGGRLWLYVNDAPVPLARVTPKRHMLVDSDALAFAYILETDDRFLYVMVPKLWWPELKAALDAEEPVWLRCGERTLELEQFHDELSYLLENIRGNANYGEALEQAVQDVFFEQ” the “soluble on expression in E. coli” value was “not soluble”.

In the case of “MDKMFKRTLLGAAVAMASTGAFAASETGAIGVLSDFNVQAYGVAAISAFYQEDSNGYDYENESRIGFRASKDMFDNVNVFMQIESGYVGEDGKGSTLGARDTFLGLQGDWGKVRFGRMLTPLYEIVDWPYSNPGLGRVFDWGGDVAGHYDRKGDIARYDSPAFGGLTFNISAGRGDVGTKSSNHFGAAAHYNAADIVTFHVGYENNSNFKYDYKTKDTAGKDVDNTFLTDATAYIVGFELPLPAGFGLAGAYKYTEGASKTVKGQEGEQGQYSLIGQYWNGPWGFKVGYAANLESEVNGVEQKDDDEVLSAQLMYVKNGFVPYIRVGQHDAYDSADKKGFVRVGLEYGF”, the “soluble on expression in E. coli” value was “not soluble”.

For “MAQTPAFNKPKVELHVHLDGAIKPETILYFGKKRGIALPADTVEELRNIIGMDKPLSLPGFLAKFDYYMPVIAGCREAIKRIAYEFVEMKAKEGVVYVEVRYSPHLLANSKVDPMPWNQTEGDVTPDDVVDLVNQGLQEGEQAFGIKVRSILCCMRHQPSWSLEVLELCKKYNQKTVVAMDLAGDETIEGSSLFPGHVEAYEGAVKNGIHRTVHAGEVGSPEVVREAVDILKTERVGHGYHTIEDEALYNRLLKENMHFEVCPWSSYLTGAWDPKTTHAVVRFKNDKANYSLNTDDPLIFKSTLDTDYQMTKKDMGFTEEEFKRLNINAAKSSFLPEEEKKELLERLYREYQ”, the “soluble on expression in E. coli” value was “soluble”.

For “MLLEERLSQISQIIDKEGSATIDFLAQKLEVSKDTIRRDLIKLESRKKLHRVHGGAIPIGKEAEILNYEERSNISTSLKKKIASKIKNLIKDHSTLIFDSSTTVEVAIKQLDNFSISTITNSLTNAILLSKYEMATVQLLPGKLNKNQLFLYGAETVEKLSQYQVDFTILGVFALSNNGLFIHTEEEGLVKRKMIQQGKQVIAIADHTKLNKEGFFKICDLKEIDYLITDEKIEGELMNNLNDNNVKVVTINELEHHHHHH”, the “soluble on expression in E. coli” value was “soluble”.

In the case of “MLLKSIHHIAIICSDYEKSKAFYVHKLGFQVIQETYREERGSYKLDLSLNGSYVIELFSFPDPPERQTRPEAAGLRHLAFTVGSLDKAVQELHEKGIETEPIRTDPLTGKRFTFFFDPDQLPLELYEQ”, the “soluble on expression in E. coli” value was “not soluble”.

For “MGSDKIHHHHHHAATYQVKKLMGFRHPTSYYAKSAKSGYLWNKSHTKRLHNLKNYPKTTWYATAKYSMKSVRNSGTYLKVTNGTGKAKGYVWTGYLKKGVNPANPNGTLTDPFGAAMSTYNVDDNLNKQLLNLFPGTIPDEPLQLAADFIFANAGANPDDYTSVIEELVGAENEPSVFRLSSDKRIQKNQNFLSFQRNSLKEELVTKHKKFTSFKGYRIGAYAFPKHDKRYGESMILLLPSN”, the “soluble on expression in E. coli” value was “not soluble”.
